Data reported in patent publication US7084111 (UNIVERSITY OF FLORIDA RESEARCH FOUNDATION, dated 2006).
Bridges are numbered along the chain shown (N, C = ends). Where no end group is shown, it is not given here. [ ]: non-standard residue; d: D form. Nle = CCCC[C@H](N)C(=O)O; Dap = NC[C@H](N)C(=O)O

B1: SEQ ID NO:21 (Ac-Nle-c[Asp-His-DArg-Phe-Phe-Lys]) (peptide)
peptide: Ac-[Nle]DH[dR]FFK-NH2
modifications: lactam 2-7
B2: SEQ ID NO:22 (Ac-Nle-c[Asp-His-Arg-DPhe-Phe-Lys]) (peptide)
peptide: Ac-[Nle]DHR[dF]FK-NH2
modifications: lactam 2-7
B3: SEQ ID NO:23 (Ac-Nle-c[Asp-His-Arg-Phe-DPhe-Lys]) (peptide)
peptide: Ac-[Nle]DHRF[dF]K-NH2
modifications: lactam 2-7
SMILES: CCCC[C@H](NC(C)=O)C(=O)N[C@H]1CC(=O)NCCCC[C@@H](C(N)=O)NC(=O)[C@@H](Cc2ccccc2)NC(=O)[C@H](Cc2ccccc2)NC(=O)[C@H](CCCNC(=N)N)NC(=O)[C@H](Cc2c[nH]cn2)NC1=O
B4: SEQ ID NO:24 (Tyr-c[Asp-Ala-DPhe-Arg-Trp-Asn-Ala-Phe-Dpr]-Tyr) (peptide)
peptide: YDAXRWNAFXY
modifications: Asp-Dpr side chain lactam bridge; Dpr; DPhe; C-terminal amide (amide resin)
B5: SEQ ID NO:25 (Tyr-c[Asp-His-Ala-Arg-Trp-Asn-Ala-Phe-Dpr]-Tyr) (peptide)
peptide: YDHARWNAF[Dap]Y-NH2
modifications: lactam 2-10; N-terminus assumed
SMILES: C[C@@H]1NC(=O)[C@H](CC(N)=O)NC(=O)[C@H](Cc2c[nH]c3ccccc23)NC(=O)[C@H](CCCNC(=N)N)NC(=O)[C@H](C)NC(=O)[C@H](Cc2c[nH]cn2)NC(=O)[C@@H](NC(=O)[C@@H](N)Cc2ccc(O)cc2)CC(=O)NC[C@@H](C(=O)N[C@@H](Cc2ccc(O)cc2)C(N)=O)NC(=O)[C@H](Cc2ccccc2)NC1=O
B6: SEQ ID NO:26 (Tyr-c[Asp-His-DPhe-Ala-Trp-Asn-Ala-Phe-Dpr]-Tyr) (peptide)
peptide: YDHXAWNAFXY
modifications: Asp-Dpr side chain lactam bridge; Dpr; DPhe; C-terminal amide (amide resin)
B7: SEQ ID NO:27 (Tyr-c[Asp-His-DPhe-Arg-Ala-Asn-Ala-Phe-Dpr]-Tyr) (peptide)
peptide: YDHXRANAFXY
modifications: Asp-Dpr side chain lactam bridge; Dpr; DPhe; C-terminal amide (amide resin)
B8: SEQ ID NO:28 (Tyr-c[Asp-Pro-DPhe-Arg-Trp-Asn-Ala-Phe-Dpr]-Tyr) (peptide)
peptide: YDPXRWNAFXY
modifications: Asp-Dpr side chain lactam bridge; Dpr; DPhe; C-terminal amide (amide resin)
B9: SEQ ID NO:29 (Tyr-c[Asp-Phe-DPhe-Arg-Trp-Asn-Ala-Phe-Dpr]-Tyr) (peptide)
peptide: YDFXRWNAFXY
modifications: Asp-Dpr side chain lactam bridge; Dpr; DPhe; C-terminal amide (amide resin)
B10: SEQ ID NO:30 (Tyr-c[Asp-(rac)Atc-DPhe-Arg-Trp-Asn-Ala-Phe-Dpr]-Tyr) (peptide)
peptide: YDXXRWNAFXY
modifications: Asp-Dpr side chain lactam bridge; Dpr; (rac)Atc; DPhe; C-terminal amide (amide resin)
B11: SEQ ID NO:31 (Tyr-c[Asp-His-Pro-Arg-Trp-Asn-Ala-Phe-Dpr]-Tyr) (peptide)
peptide: YDHPRWNAF[Dap]Y-NH2
modifications: lactam 2-10; N-terminus assumed
SMILES: C[C@@H]1NC(=O)[C@H](CC(N)=O)NC(=O)[C@H](Cc2c[nH]c3ccccc23)NC(=O)[C@H](CCCNC(=N)N)NC(=O)[C@@H]2CCCN2C(=O)[C@H](Cc2c[nH]cn2)NC(=O)[C@@H](NC(=O)[C@@H](N)Cc2ccc(O)cc2)CC(=O)NC[C@@H](C(=O)N[C@@H](Cc2ccc(O)cc2)C(N)=O)NC(=O)[C@H](Cc2ccccc2)NC1=O
B12: SEQ ID NO:32 (Tyr-c[Asp-His-(pI)DPhe-Arg-Trp-Asn-Ala-Phe-Dpr]-Tyr) (peptide)
peptide: YDHXRWNAFXY
modifications: Asp-Dpr side chain lactam bridge; Dpr; (pI)DPhe; C-terminal amide (amide resin)
B13: SEQ ID NO:33 (Tyr-c[Asp-His-DNal(2′)-Arg-Trp-Asn-Ala-Phe-Dpr]-Tyr) (peptide)
peptide: YDHXRWNAFXY
modifications: Asp-Dpr side chain lactam bridge; Dpr; DNal(2′); C-terminal amide (amide resin)
B14: SEQ ID NO:34 (Tyr-c[Asp-His-DNal(1′)-Arg-Trp-Asn-Ala-Phe-Dpr]-Tyr) (peptide)
peptide: YDHXRWNAFXY
modifications: Asp-Dpr side chain lactam bridge; Dpr; DNal(1′); C-terminal amide (amide resin)
B15: SEQ ID NO:35 (Tyr-c[Asp-His-DBip-Arg-Trp-Asn-Ala-Phe-Dpr]-Tyr) (peptide)
peptide: YDHXRWNAFXY
modifications: Asp-Dpr side chain lactam bridge; Dpr; DBip; C-terminal amide (amide resin)
B16: SEQ ID NO:36 (Tyr-c[Asp-His-DPhe-Pro-Trp-Asn-Ala-Phe-Dpr]-Tyr) (peptide)
peptide: YDHXPWNAFXY
modifications: Asp-Dpr side chain lactam bridge; Dpr; DPhe; C-terminal amide (amide resin)
B17: SEQ ID NO:37 (Tyr-c[Asp-His-DPhe-Lys-Trp-Asn-Ala-Phe-Dpr]-Tyr) (peptide)
peptide: YDHXKWNAFXY
modifications: Asp-Dpr side chain lactam bridge; Dpr; DPhe; C-terminal amide (amide resin)
B18: SEQ ID NO:38 (Tyr-c[Asp-His-DPhe-Arg-Pro-Asn-Ala-Phe-Dpr]-Tyr) (peptide)
peptide: YDHXRPNAFXY
modifications: Asp-Dpr side chain lactam bridge; Dpr; DPhe; C-terminal amide (amide resin)
B19: SEQ ID NO:5 (Tyr-c[Asp-Trp-Arg-DPhe-Asn-Ala-Phe-Dpr]-Tyr) (peptide)
peptide: YDWR[dF]NAF[Dap]Y-NH2
modifications: lactam 2-9; N-terminus assumed
SMILES: C[C@@H]1NC(=O)[C@H](CC(N)=O)NC(=O)[C@@H](Cc2ccccc2)NC(=O)[C@H](CCCNC(=N)N)NC(=O)[C@H](Cc2c[nH]c3ccccc23)NC(=O)[C@@H](NC(=O)[C@@H](N)Cc2ccc(O)cc2)CC(=O)NC[C@@H](C(=O)N[C@@H](Cc2ccc(O)cc2)C(N)=O)NC(=O)[C@H](Cc2ccccc2)NC1=O
B20: SEQ ID NO:6 (Tyr-c[Asp-Phe-Arg-Trp-Asn-Ala-Phe-Dpr]-Tyr) (peptide)
peptide: YDFRWNAF[Dap]Y-NH2
modifications: lactam 2-9
B21: SEQ ID NO:7 (Tyr-c[Asp-DPhe-Arg-Trp-Asn-Ala-Phe-Dpr]-Tyr-NH2) (peptide)
peptide: YD[dF]RWNAF[Dap]Y-NH2
modifications: lactam 2-9
B22: SEQ ID NO:18 (Ac-Ser-Tyr-Ser-Nle-Glu-His-Arg-Phe-DPhe-Gly-Lys-Pro-Val) (peptide)
peptide: Ac-SYS[Nle]EHRF[dF]GKPV-NH2
SMILES: CCCC[C@H](NC(=O)[C@H](CO)NC(=O)[C@H](Cc1ccc(O)cc1)NC(=O)[C@H](CO)NC(C)=O)C(=O)N[C@@H](CCC(=O)O)C(=O)N[C@@H](Cc1c[nH]cn1)C(=O)N[C@@H](CCCNC(=N)N)C(=O)N[C@@H](Cc1ccccc1)C(=O)N[C@H](Cc1ccccc1)C(=O)NCC(=O)N[C@@H](CCCCN)C(=O)N1CCC[C@H]1C(=O)N[C@H](C(N)=O)C(C)C
B23: SEQ ID NO:3 (Tyr-c[Asp-Arg-Phe-Phe-Asn-Ala-Phe-Dpr]-Tyr) (peptide)
peptide: YDRFFNAF[Dap]Y-NH2
modifications: lactam 2-9
B24: SEQ ID NO:16 (Ac-Ser-Tyr-Ser-Nle-Glu-His-DArg-Phe-Phe-Gly-Lys-Pro-Val) (peptide)
peptide: Ac-SYS[Nle]EH[dR]FFGKPV-NH2

The binders below were run against mouse melanocortin-1 receptor (mouse, UniProt Q01727 1-315) (assay: cell-based or functional assay).
mouse melanocortin-1 receptor, sequence (Q01727 whole entry): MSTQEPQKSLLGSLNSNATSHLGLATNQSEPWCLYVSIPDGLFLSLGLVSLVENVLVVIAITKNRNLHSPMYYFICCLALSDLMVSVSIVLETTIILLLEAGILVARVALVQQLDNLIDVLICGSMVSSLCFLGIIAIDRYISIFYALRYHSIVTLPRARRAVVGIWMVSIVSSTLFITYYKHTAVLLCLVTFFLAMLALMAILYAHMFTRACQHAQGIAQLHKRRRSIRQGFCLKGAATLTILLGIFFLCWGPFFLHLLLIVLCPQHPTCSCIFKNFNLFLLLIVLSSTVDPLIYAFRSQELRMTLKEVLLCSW

Binder | EC50 (agonist) [nM]
B1 | > 100000
B2 | 440
B3 | 2630
B4 | 7.2
B5 | 14000
B6 | 66.5
B7 | 350
B8 | 22.1
B9 | 6.04
B10 | 690
B11 | 10300
B12 | 0.3
B13 | 5.56
B14 | 9.2
B15 | 3.87
B16 | 990
B17 | 680
B18 | 1000
B19 | 6120
B20 | 19700
B21 | 4850
B22 | 3630

What follows are binders tested against mouse melanocortin-3 receptor (mouse, UniProt P33033 1-323) (assay: cell-based or functional assay).
mouse melanocortin-3 receptor, sequence (P33033 whole entry): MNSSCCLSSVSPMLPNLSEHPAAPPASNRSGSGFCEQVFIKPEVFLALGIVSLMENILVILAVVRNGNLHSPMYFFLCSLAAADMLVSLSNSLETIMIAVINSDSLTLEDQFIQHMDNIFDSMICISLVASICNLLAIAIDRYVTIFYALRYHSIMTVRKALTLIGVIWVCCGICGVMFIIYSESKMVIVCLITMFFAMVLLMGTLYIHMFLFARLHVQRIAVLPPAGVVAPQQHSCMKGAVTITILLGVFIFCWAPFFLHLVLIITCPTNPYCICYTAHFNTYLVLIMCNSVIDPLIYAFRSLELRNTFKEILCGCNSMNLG

Binder | EC50 (agonist) [nM] | EC50 (agonist; Partial agonist) [nM] | pA2 (antagonist; Partial agonist) | pA2 (antagonist)
B1 | > 100000 |  |  | 
B2 | 14400 |  |  | 
B4 | 29 |  |  | 
B5 |  | 30300 |  | 
B6 | 23800 |  |  | 
B7 | 13500 |  |  | 
B8 |  |  | 7.2 | 
B9 |  |  | 7.2 | 
B10 |  |  |  | 6.4
B11 | 13200 |  |  | 
B12 |  |  |  | 8.9
B13 |  |  |  | 8.3
B14 | 320 |  |  | 
B15 | 33 |  |  | 
B16 | 17300 |  |  | 
B17 | 30800 |  |  | 
B18 | 39200 |  |  | 
B23 |  |  |  | 5.7
B24 | > 100000 |  |  | 
B22 | > 100000 |  |  | 

Each binder was assayed against mouse melanocortin-4 receptor (mouse, UniProt P56450 1-332) (assay: cell-based or functional assay).
mouse melanocortin-4 receptor, sequence (P56450 whole entry): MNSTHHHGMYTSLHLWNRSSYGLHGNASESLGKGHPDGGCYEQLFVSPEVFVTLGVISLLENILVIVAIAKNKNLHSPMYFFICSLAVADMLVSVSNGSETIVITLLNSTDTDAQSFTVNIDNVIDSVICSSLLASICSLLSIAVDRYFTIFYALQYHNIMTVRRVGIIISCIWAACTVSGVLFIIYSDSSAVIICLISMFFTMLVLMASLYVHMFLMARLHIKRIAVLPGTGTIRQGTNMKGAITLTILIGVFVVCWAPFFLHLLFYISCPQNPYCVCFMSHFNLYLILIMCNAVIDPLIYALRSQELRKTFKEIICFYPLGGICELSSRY

Binder | EC50 (agonist) [nM] | pA2 (antagonist; Partial agonist) | pA2 (antagonist)
B1 | > 100000 |  | 
B2 | 5000 |  | 
B3 | > 100000 |  | 
B4 | 0.36 |  | 
B5 | 14700 |  | 
B6 | 32.5 |  | 
B7 | 710 |  | 
B8 | 0.63 |  | 
B9 | 0.64 |  | 
B10 | 115 |  | 
B11 | 16700 |  | 
B12 |  | 9.4 | 
B13 |  | 9.3 | 
B14 | 0.57 |  | 
B15 | 0.57 |  | 
B16 | 4300 |  | 
B17 | 8600 |  | 
B18 | 7200 |  | 
B23 |  |  | 5.9
B19 | 10900 |  | 
B20 | 13400 |  | 
B21 | 450 |  | 
B24 | > 100000 |  | 
B22 | > 100000 |  | 

These binders were tested against mouse melanocortin-5 receptor (mouse, UniProt P41149 1-325) (assay: cell-based or functional assay).
mouse melanocortin-5 receptor, sequence (P41149 whole entry): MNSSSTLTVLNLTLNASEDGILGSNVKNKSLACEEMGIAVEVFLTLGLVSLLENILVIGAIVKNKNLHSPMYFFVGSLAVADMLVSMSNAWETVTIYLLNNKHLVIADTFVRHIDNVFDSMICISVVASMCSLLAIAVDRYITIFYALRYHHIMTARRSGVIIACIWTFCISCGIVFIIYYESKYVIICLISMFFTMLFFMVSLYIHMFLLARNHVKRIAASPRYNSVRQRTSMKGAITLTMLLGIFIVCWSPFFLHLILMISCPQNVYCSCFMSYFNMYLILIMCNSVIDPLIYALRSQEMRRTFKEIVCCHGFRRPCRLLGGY

Binder | EC50 (agonist) [nM]
B1 | > 100000
B2 | 3600
B4 | 0.46
B5 | 690
B6 | 2.06
B7 | 50.1
B8 | 7.16
B9 | 3.15
B10 | 440
B11 | 7900
B12 | 2.33
B13 | 22.3
B14 | 3.13
B15 | 5.27
B16 | 3200
B17 | 800
B18 | 700
B23 | > 100000
B19 | 2220
B20 | 3900
B21 | 124
